Measured values published in publication PMC12527912.
Values belong to the substance of their own block, whether it stands above or below them.

How the values were obtained:
[1] = molecular target: lamin A peptide LA 572-588;histone octamer (H2A, H2B, H3, H4) (;Xenopus laevis) (UniProt P02545+P84233+P62799+P06897+P02281); assay: competition (TIRF); details: EMSA: 150 mM NaCl, 20 mM HEPES pH 7.5, 1 mM DTT, 4 C, 1 h, 6% native PAGE; TIRF buffer not in the material
[2] = molecular target: lamin A tail LA 430-585;histone octamer (H2A, H2B, H3, H4) (Xenopus laevis) (UniProt P84233+P62799+P06897+P02281); assay: EMSA; details: 0.05 uM Alexa 488 nucleosome; LA 3.1-400 uM; EMSA: 150 mM NaCl, 20 mM HEPES pH 7.5, 1 mM DTT, 4 C, 1 h, 6% native PAGE; TIRF buffer not in the material
[3] = molecular target: lamin A 430–585 C570A, labelled with CF660R (UniProt P02545); assay: fluorescence correlation spectroscopy (FCS); 500 pM CF660R-labelled LA 430–585 C570A, diffusion time against H2A–H2B concentration; 20 mM HEPES pH 8, 150 mM NaCl, 0.01% Tween20, 2 mM ascorbic acid and methyl viologen; one-to-one binding model
[4] = molecular target: H4K20C nucleosome labelled with Alexa Fluor 488 (Xenopus laevis); assay: native gel or EMSA; 4 °C; 150 mM NaCl, 20 mM HEPES pH 7.5, 1 mM DTT; 0.05 µM Alexa 488-labeled nucleosomes with 3.1 µM to 400 µM lamin fragment, 1 h; 6% native PAGE
[5] = molecular target: H4K20C nucleosome labelled with Alexa Fluor 488 (Xenopus laevis); assay: TIRF microscopy on micropatterned nucleosomes, competition; as a6 with 1 µM CF660R-labelled LA 430–585 and 0 to 1500 µM unlabelled peptide LA 572–588; ratio of lamin to nucleosome fluorescence fitted with a four-parameter dose–response Hill–Langmuir equation

Substance: 197 bp 601 nucleosome
IC50 [1]: 5 µM
Kd [2]: 48 µM

Kd [3]: 12 µM
Substance: H2A–H2B heterodimer (Xenopus laevis) (from UniProt P06897 11-120; P02281 1-126) (complex)

Kd [4]: 48 µM
Substance: lamin A 430–585, from the 6xHis-SUMO plasmid, tag cleaved (from UniProt P02545 430-585) (domain or fragment)

EC50 [5]: 5 µM
Substance: synthetic peptide comprising amino acids 572–588 of lamin A
